For this experiment, the target named is T1, human complement C1q (human, UniProt P02745 23-245; P02746 28-253; P02747 29-245).
T1 construct: also called human C1q
The experiment can be described thus: C1q binding ELISA, GnGn against wt plants (FIG. 9).

T1 sequence (P02745 23-245 limits assumed, chain 1 of 3): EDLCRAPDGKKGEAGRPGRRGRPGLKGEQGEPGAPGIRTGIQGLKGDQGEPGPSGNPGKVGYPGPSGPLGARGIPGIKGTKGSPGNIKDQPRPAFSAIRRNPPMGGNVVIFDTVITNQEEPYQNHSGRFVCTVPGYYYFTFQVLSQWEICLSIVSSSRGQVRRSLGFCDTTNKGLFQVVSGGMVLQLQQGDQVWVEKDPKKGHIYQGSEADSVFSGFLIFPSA
T1 sequence (P02746 28-253 limits assumed, chain 2 of 3): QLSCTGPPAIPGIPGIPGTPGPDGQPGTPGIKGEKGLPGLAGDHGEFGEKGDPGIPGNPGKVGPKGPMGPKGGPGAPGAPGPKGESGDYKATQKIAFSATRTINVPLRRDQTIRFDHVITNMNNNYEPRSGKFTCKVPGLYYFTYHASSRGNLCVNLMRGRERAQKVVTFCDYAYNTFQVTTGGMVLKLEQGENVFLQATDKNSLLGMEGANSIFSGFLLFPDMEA
T1 sequence (P02747 29-245 limits assumed, chain 3 of 3): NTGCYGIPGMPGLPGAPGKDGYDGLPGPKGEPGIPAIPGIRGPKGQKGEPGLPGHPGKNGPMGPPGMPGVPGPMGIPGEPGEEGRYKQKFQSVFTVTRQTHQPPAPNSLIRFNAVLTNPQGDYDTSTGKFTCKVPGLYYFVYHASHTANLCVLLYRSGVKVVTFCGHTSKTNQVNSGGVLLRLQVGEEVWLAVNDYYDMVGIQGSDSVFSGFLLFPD

B1: 6D8 antibody (full 6D8 mAb without ZE3 fusion, construct HL) (antibody)
heavy: not shown
light: DVLMTQSPLSLPVTLGQPASISCRSSQSIVHSNGNTYLEWYLQKPGQSPKLLIYKASNRFSGVPDRFSGSGSGTDFTLKISRVEAEDAGVYYCLQGSHVPSTFGGGTKVEIKTVAAPSVFIFPPSDEQLKSGTASVVCLLNNFYPREAKVQWKVDNALQSGNSQESVTEQDSKDSTYSLSSTLTLSKADYEKHKVYACEVTHQGLSSPVTKSFNRGEC
In the case of B1, the binding result is “binds”.
